Reference: patent publication US9255256B2, “Expression of functional cytochorome P450 monooxygenase system in enterobacteria” (priority 1996, dated 2016)
Read-outs that look alike come from different tables or passages of the source.

How the values were obtained:
[1] = target: T1, human P450 reductase fused at its N-terminus to the bacterial pelB leader sequence (bacterial; human) (UniProt P16435); assay: cell-based or functional assay
T1 sequence: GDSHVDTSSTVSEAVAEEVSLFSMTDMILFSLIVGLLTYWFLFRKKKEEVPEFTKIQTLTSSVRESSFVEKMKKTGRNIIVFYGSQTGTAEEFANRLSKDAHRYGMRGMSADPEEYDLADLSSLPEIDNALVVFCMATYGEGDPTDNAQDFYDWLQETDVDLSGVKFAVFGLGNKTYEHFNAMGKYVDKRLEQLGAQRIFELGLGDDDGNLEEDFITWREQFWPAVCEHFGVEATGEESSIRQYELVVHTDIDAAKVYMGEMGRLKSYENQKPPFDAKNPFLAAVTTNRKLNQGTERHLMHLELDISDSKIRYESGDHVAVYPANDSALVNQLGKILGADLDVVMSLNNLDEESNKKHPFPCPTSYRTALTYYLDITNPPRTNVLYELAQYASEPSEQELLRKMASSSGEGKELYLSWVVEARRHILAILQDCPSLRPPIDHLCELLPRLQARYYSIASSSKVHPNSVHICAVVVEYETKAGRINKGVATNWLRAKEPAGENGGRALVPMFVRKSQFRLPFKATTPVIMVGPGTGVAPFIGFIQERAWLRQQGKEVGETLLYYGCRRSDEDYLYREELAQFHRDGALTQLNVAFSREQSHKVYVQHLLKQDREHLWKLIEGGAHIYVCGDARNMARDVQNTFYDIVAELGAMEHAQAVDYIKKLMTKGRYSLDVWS

[2] = target: bacterial flavodoxin/NADPH-flavodoxin reductase system or another bacterial reductase; assay: cell-based or functional assay
[3] = system: CYP3A4; details: reconstituted system, Gillam et al (1993); cited from earlier work
[4] = system: CYP3A4; assay: Testosterone 6β-hydroxylase assay, bacterial membrane fractions; type: biochemical, human; details: in the presence of cumene hydroperoxide, no reductase
Target sequence in this assay (P08684 19-503 limits assumed): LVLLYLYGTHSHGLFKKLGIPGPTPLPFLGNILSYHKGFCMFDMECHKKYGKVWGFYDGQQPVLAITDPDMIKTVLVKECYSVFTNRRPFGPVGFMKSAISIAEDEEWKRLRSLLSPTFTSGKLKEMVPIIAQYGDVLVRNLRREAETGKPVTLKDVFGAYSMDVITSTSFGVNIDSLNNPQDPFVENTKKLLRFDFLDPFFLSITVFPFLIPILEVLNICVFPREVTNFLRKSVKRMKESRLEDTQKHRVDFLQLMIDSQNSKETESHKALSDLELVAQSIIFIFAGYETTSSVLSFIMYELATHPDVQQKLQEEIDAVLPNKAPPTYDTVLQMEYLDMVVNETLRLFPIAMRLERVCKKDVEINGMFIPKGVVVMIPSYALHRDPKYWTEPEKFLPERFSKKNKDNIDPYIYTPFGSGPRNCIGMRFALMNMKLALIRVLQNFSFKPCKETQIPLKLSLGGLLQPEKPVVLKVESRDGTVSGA
Protocol: Assays were carried out with cells and membrane fractions. In both cases, approximately 100 pmol P450 was incubated with shaking in TSE containing 30 mM MgCl2. The final testosterone concentration was 0.2 mM. Where membranes were used, an NADPH generating system was is added (final concentration 1 mM NADP, 5 mM glucose-6-phosphate, 1 unit glucose-6-phosphate dehydrogenase). Reactions were carried out at 37° C. for 5 minutes, then stopped by addition of 1 ml ice-cold methanol and placed on ice for 10 minutes. Following centrifugation, supernatants were diluted with an equal volume of ice-cold water, and the testosterone metabolites extracted using Isolute C18 columns (IST Ltd), and eluted in 1 ml methanol. […] The yield of the 6β-hydroxytestosterone was calculated by reference to a standard of known concentration, and this allowed determination of the specific activity of the recombinant CYP3A4 towards testosterone.
Direct determination of the catalytic activity of the expressed proteins was not possible due to the absence of P450 reductase in bacterial membranes. The P450 enzyme activity was therefore determined in the presence of cumene hydroperoxide which serves as an artificial oxygen donor for P450s.

[5] = target: T1, human P450 reductase fused at its N-terminus to the bacterial pelB leader sequence (bacterial; human); assay: cell-based or functional assay; remark: listed apart in the source
[6] = target: T2, human P450 reductase fused at its N-terminus to the bacterial pelB leader sequence, P16435
T2 chain: T1 sequence

[7] = target: T3, CYP2D6 (Homo sapiens, UniProt P10635); assay: Bufuralol 1′-hydroxylase assay, whole cells; type: cell-based
T3 construct: in frame to the 5′-end of the full length P450 cDNA; made in house; host or cells: E. coli JM109, membrane fractions
Protocol: Assays on whole cells were carried out at 37° C. in 50 ml conical flasks, and contained 50 pmol CYP2D6, 50 μM (±)-bufuralol and 1×TSE buffer in a total volume of 5 ml. Samples (300 μl) were withdrawn at 0, 2, 5 and 10 min into tubes containing 15 μl of 60% perchloric acid on ice. Analysis then proceeded in an identical manner to the membrane assays (see above).

[8] = target: T3, CYP2D6; type: biochemical
Protocol: Assays on bacterial membrane fractions were carried out at 37° C. in 50 mM potassium phosphate buffer, pH 7.4, containing 20 or 50 pmol CYP2D6, 50 μM (±)-bufuralol, and a NADPH regenerating system (see Example 1) in a total volume of 300 μl. For membranes isolated from cells carrying pCW/ompA-CYP2D6 only (ie. no reductase co-expressed), the NADPH regenerating system was replaced by 100 μM cumene hydroperoxide. Reactions were stopped by the addition of 15 μl of 60% perchloric acid and placed on ice for 5-10 min. Precipitated proteins were removed by centrifugation, and then the supernatants were analysed for 1′-hydroxybufuralol by reversed-phase HPLC, with reference to authentic standard. Separation was achieved using a Spherisorb 5 μm ODS-2 column 25 cm×4.6 mm, and a mobile phase of 0.1 M ammonium acetate (pH 5.0) with a linear gradient of acetonitrile (27 to 51% in 12 min). Detection was by fluorescence using excitation and emission wavelengths of 252 and 302 nm, respectively.
For the determination of Michaelis-Menten kinetic parameters, incubations were carried out for 5 min with 20 pmol CYP2D6 and varying concentrations of substrate (0 to 100 μM). Km and νmax were estimated from double-reciprocal plots of initial reaction velocity versus substrate concentration.

[9] = target: T4, P450 reductase (Homo sapiens, UniProt P16435)
T4 sequence (P16435 with tags, fused parts or gaps): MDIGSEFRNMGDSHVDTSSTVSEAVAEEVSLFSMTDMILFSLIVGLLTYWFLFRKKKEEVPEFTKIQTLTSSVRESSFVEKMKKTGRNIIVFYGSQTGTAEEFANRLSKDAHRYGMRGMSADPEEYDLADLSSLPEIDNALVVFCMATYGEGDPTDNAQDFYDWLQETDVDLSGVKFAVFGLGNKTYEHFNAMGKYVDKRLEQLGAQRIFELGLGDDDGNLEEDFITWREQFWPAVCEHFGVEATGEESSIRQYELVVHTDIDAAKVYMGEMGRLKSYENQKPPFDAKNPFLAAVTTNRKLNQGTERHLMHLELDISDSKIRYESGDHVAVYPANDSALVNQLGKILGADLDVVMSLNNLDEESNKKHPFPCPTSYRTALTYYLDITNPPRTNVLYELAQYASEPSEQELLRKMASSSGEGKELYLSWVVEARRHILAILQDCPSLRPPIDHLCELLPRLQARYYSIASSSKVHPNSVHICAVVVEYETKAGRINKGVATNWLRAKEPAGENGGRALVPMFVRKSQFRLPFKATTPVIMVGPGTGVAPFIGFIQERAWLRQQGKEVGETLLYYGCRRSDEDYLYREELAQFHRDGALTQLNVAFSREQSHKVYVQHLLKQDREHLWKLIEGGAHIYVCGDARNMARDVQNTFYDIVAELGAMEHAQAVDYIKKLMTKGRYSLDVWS
Protocol: (§1) An equal volume of ice-cold distilled water was then added. The CYP3A4 content was determined using Fe^2—CO vs Fe^2+ difference spectra by adding 50 μl whole cell suspension in 1×TSE to 950 μl 100 mM Tris. Cl (pH 7.4), 10 mM CHAPS, 20% v/v glycerol, 1 mM EDTA and reducing by adding a few grains of sodium dithionite. A baseline of zero absorbance was recorded between 500 and 400 nm, then the sample cuvette was bubbled under a steady stream of CO for about 1 minute. A spectrum was then recorded and the yield of spectrally active CYP3A4/1 culture determined. At this stage, an aliquot of whole cells was withdrawn for metabolism studies. […] The CYP3A4 and reductase content of the membranes was determined. The yield of active reductase was evaluated by a spectrophotometric assay, as follows. To 990 μl 50 μM cytochrome c in 0.3 M potassium phosphate buffer (pH 7.7), 1-10 μg membrane protein was added, and a baseline recorded. 50 μM NADPH was added and ΔA550 nm was recorded over time. To determine the P450 contents of membranes, spectra were obtained as for whole cells.

[10] = system: P450 reductase; assay: Cytochrome c reductase activity of bacterial membrane fractions; details: membranes, expression from pCW, towards cytochrome c (FIG. 4)
Protocol: as §1

Molecule: 17α-CYP3A4 (optimised CYP3A4 expressed from NF14 / pB216) (from UniProt P08684 1-503) (enzyme)
- nifedipine oxidase turnover, JM109 pB216 whole cells [1]: 15.2 min^-1
- testosterone 6β-hydroxylase turnover, JM109 pB216 whole cells [1]: 17.3 min^-1
- testosterone 6β-hydroxylase turnover, JM109 NF14 whole cells (CYP3A4 alone) [2]: < 0.5 min⁻¹

Molecule: bacterially-expressed CYP3A4: reconstituted system containing bacterially-expressed CYP3A4, Gillam et al (1993)
- turnover rates, testosterone 6β-hydroxylation [3]: up to 10 nmol 6β-hydroxytestosterone/minute/nmol P450

Molecule: ompA-CYP3A4: CYP3A4 fused at its N-terminus to the bacterial ompA leader sequence
- turnover number for the 6β-hydroxylation of testosterone [4]: 3.2 min⁻¹

B1: ompA(+2)-CYP2A6 (enzyme, human)
chain: APMLASGMLLVALLVCLTVMVLMSVWQQRKSKGKLPPGPTPLPFIGNYLQLNTEQMYNSLMKISERYGPVFTIHLGPRRVVVLCGHDAVREALVDQAEEFSGRGEQATFDWVFKGYGVVFSNGERAKQLRRFSIATLRDFGVGKRGIEERIQEEAGFLIDALRGTGGANIDPTFFLSRTVSNVISSIVFGDRFDYKDKEFLSLLRMMLGIFQFTSTSTGQLYEMFSSVMKHLPGPQQQAFQLLQGLEDFIAKKVEHNQRTLDPNSPRDFIDSFLIRMQEEEKNPNTEFYLKNLVMTTLNLFIGGTETVSTTLRYGFLLLMKHPEVEAKVHEEIDRVIGKNRQPKFEDRAKMPYMEAVIHEIQRFGDVIPMSLARRVKKDTKFRDFFLPKGTEVYPMLGSVLRDPSFFSNPQDFNPQHFLNEKGQFKKSDAFVPFSIGKRNCFGEGLARMELFLFFTTVMQNFRLKSSQSPKDIDVSPKHVGFATIPRNYTMSFLPR
- coumarin 7-hydroxylase activity, shocked cells (nmol/min/nmol P450) [5]: 0.29
- coumarin 7-hydroxylase activity, membranes [6]: 1

B2: ompA-CYP2D6 (protein)
chain: MGLEALVPLAVIVAIFLLLVDLMHRRQRWAARYPPGPLPLPGLGNLLHVDFQNTPYCFDQLRRRFGDVFSLQLAWTPVVVLNGLAAVREALVTHGEDTADRPPVPITQILGFGPRSQGVFLARYGPAWREQRRFSVSTLRNLGLGKKSLEQWVTEEAACLCAAFANHSGRPFRPNGLLDKAVSNVIASLTCGRRFEYDDPRFLRLLDLAQEGLKEESGFLREVLNAVPVLLHIPALAGKVLRFQKAFLTQLDELLTEHRMTWDPAQPPRDLTEAFLAEMEKAKGNPESSFNDENLRIVVADLFSAGMVTTSTTLAWGLLLMILHPDVQRRVQQEIDDVIGQVRRPEMGDQAHMPYTTAVIHEVQRFGDIVPLGVTHMTSRDIEVQGFRIPKGTTLITNLSSVLKDEAVWEKPFRFHPEHFLDAQGHFVKPEAFLPFSAGRRACLGEPLARMELFLFFTSLLQHFSFSVPTGQPRPSHHGVFAFLVSPSPYELCAVPR
- bufuralol 1′-hydroxylase activity, intact E. coli [7]: 1.2 nmoles/min/mg protein
- turnover number, bufuralol hydroxylation, intact bacteria ([7]; co-expressed with pelB-reductase, 50 μM bufuralol, no added NADPH): 4.6 min⁻¹
- bufuralol 1′-hydroxylase activity, fold higher than average of a panel of human liver microsomes ([7]; intact E. coli): about 20 fold
- Km [8]: 11.1 µM
- Vmax, bufuralol 1′-hydroxylation [8]: 13.3 min⁻¹
- specific activity, bufuralol hydroxylation [8]: 1.2 nmoles/min/mg membrane protein
- specific activity, fold higher than the value reported for human liver microsomes [8]: 40 fold
- cytochrome c reductase activity [9]: 530 nmol/min/mg
- CYP2D6-dependent activities on co-expression [6]: couples well with co-expressed reductase, catalysing typical CYP2D6-dependent activities
- Vmax of bufuralol 1'-hydroxylation, membranes co-expressing both [6]: 13.3 min⁻¹
- bufuralol 1'-hydroxylase specific activity [6]: 1.2 nmoles/min/mg membrane protein
- bufuralol 1'-hydroxylation turnover number, intact bacteria [6]: turnover numbers of 4.6 min^-1 and 5.7 min^-1 respectively
- bufuralol 1'-hydroxylation turnover number, membranes [6]: turnover numbers of 4.6 min^-1 and 5.7 min^-1 respectively

B3: 17α-CYP2A6 (protein)
chain: MLASGMLLVALLVCLTVMVLMSVWQQRKSKGKLPPGPTPLPFIGNYLQLNTEQMYNSLMKISERYGPVFTIHLGPRRVVVLCGHDAVREALVDQAEEFSGRGEQATFDWVFKGYGVVFSNGERAKQLRRFSIATLRDFGVGKRGIEERIQEEAGFLIDALRGTGGANIDPTFFLSRTVSNVISSIVFGDRFDYKDKEFLSLLRMMLGIFQFTSTSTGQLYEMFSSVMKHLPGPQQQAFQLLQGLEDFIAKKVEHNQRTLDPNSPRDFIDSFLIRMQEEEKNPNTEFYLKNLVMTTLNLFIGGTETVSTTLRYGFLLLMKHPEVEAKVHEEIDRVIGKNRQPKFEDRAKMPYMEAVIHEIQRFGDVIPMSLARRVKKDTKFRDFFLPKGTEVYPMLGSVLRDPSFFSNPQDFNPQHFLNEKGQFKKSDAFVPFSIGKRNCFGEGLARMELFLFFTTVMQNFRLKSSQSPKDIDVSPKHVGFATIPRNYTMSFLPR
- coumarin 7-hydroxylase activity, shocked cells (nmol/min/nmol P450) [1]: 0.75

B4: ompA-CYP2A6 (enzyme, human)
chain: B3 chain
- coumarin 7-hydroxylase activity, shocked cells (nmol/min/nmol P450) [5]: < 0.02

B5: pelB-reductase: human P450 reductase fused at its N-terminus to the pelB leader sequence (protein)
chain: T1 sequence
modifications: left off: small tags and cut ends
- reductase activity compared to the native P450 reductase [10]: almost ten fold higher
